Target: Stat1, unphosphorylated, endogenous in 293 T cells (human (endogenous in 293 T)) (UniProt P42224)
Sequence of UniProt P42224 (P42224 whole entry): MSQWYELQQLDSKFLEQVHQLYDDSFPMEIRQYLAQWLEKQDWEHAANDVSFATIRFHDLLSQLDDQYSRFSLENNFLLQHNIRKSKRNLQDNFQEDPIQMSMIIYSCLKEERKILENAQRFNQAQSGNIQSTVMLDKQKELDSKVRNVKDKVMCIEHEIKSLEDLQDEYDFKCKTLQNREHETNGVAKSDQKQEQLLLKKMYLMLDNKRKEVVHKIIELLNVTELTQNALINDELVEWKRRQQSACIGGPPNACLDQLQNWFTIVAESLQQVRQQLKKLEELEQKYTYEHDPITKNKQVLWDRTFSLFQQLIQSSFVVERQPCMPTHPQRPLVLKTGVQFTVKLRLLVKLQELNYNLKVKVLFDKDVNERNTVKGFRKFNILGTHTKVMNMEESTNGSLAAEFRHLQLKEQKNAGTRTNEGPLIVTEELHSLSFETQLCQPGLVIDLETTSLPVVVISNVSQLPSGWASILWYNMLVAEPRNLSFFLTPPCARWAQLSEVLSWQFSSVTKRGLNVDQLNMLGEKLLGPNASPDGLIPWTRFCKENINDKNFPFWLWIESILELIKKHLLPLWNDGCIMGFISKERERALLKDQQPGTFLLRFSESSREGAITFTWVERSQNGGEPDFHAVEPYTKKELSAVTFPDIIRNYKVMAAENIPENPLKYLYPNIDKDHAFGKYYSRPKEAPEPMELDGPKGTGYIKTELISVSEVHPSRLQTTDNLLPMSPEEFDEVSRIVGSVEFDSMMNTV

Substance	percent of F170S HPIV1-infected Vero cells positive for nuclear Stat1 after IFN-β (1,000 IU/mL, 60 min), confocal microscopy (untagged C proteins made by the virus; Stat1 of Vero cells) [%]	percent of WT HPIV1-infected Vero cells positive for nuclear Stat1 after IFN-β (1,000 IU/mL, 60 min), confocal microscopy (untagged C proteins made by the virus; Stat1 of Vero cells) [%]
myc-tagged HPIV1 C′ protein with the F170S substitution (C′^F170S-myc) (natural protein)	82	–
myc-tagged HPIV1 C′ protein, wild type (C′^WT-myc) (natural protein)	–	2

Source: paper PMC3280236
